In the supplement of paper PMC7877785:
± gives the uncertainty stated by the source.

Assay: self-splicing fitness, log relative to wild type (ln ratio); higher = more splicing; Tetrahymena group I intron in knt gene, E. coli kanamycin selection, DiMSum; sequences stand for … in CUCUCU…GGAGGGAAAAGUUAUCAGGCAUGCACCUGGUAGCUAGUCUUUAAACCAAUAGAUUGCAUCGGUUUAAAAGGCAAGACCGUCAAAUUGCGGGAAAGGGGUCAACAGCCGUUCAGUACCAAGUCUCAGGGGAAACUUUGAGAUGGCCUUGCAAAGGGUAUGGUAAUAAGCUGACGGACAUGGUCCUAACCACGCAGCCAAGUCCUAAGUCAACAGAUCUUCUGUUGAUAUGGAUGCAGUUCACAGACUAAAUGUCGGUCGGGGAAGAUGUAUUCUUCUCAUAAGAUAUAGUCGGACCUCUCCUUAAUGGGAGCUAGCGGAUGAAGUGAUGCAACACUGGAGCCGCUGGGAACUAAUUUGUAUGCGAAAGUAUAUUGAUUAGUUUUGGAGUACUCGUGGUCG
How it was run: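 A randomised library covering all eight P1ex-region intron nucleotides was built with the intron in the knt kanamycin-resistance gene on pET-22b(+) and held in E. coli BL21(DE3). Cells were grown overnight at 37°C or 30°C on LB agar, with or without 25 μg/mL kanamycin, plus 100 μg/mL carbenicillin, 50 μM IPTG and 0.2% rhamnose, and pooled colonies were amplicon-sequenced on an Illumina HiSeq 2500. DiMSum fitness is the error-weighted combination of wild-type-normalised replicate fold changes, kanamycin versus none.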

Sequence	self-splicing fitness (ln) (30 °C)	self-splicing fitness (ln) (37 °C)
CUCUAGCAAUAUUACGAUAU	-3.45 ± 0.24	-3.2 ± 0.25
UGUUAGCAAUAUUACGCCCG	-0.283 ± 0.18	0.289 ± 0.22
UUAGAGCAAUAUUACGAGUG	-3.12 ± 0.16	-1.53 ± 0.13
AACGAGCAAUAUUACGAAAU	-3.74 ± 0.29	-2.26 ± 0.21
GCAAAGCAAUAUUACGUUUU	-2.95 ± 0.11	-3 ± 0.18
CGGAAGCAAUAUUACGGGAA	-3.16 ± 0.46	-2.3 ± 0.28
UAAGAGCAAUAUUACGUACU	-2.79 ± 0.25	-0.993 ± 0.2
AAGAAGCAAUAUUACGUGGA	-2.97 ± 0.12	-2.44 ± 0.12
UAUCAGCAAUAUUACGGCGU	-0.864 ± 0.087	-0.578 ± 0.087
GGCCAGCAAUAUUACGACUA	-0.921 ± 0.1	-0.322 ± 0.1
AGCAAGCAAUAUUACGCCGC	-2.89 ± 0.45	-2.68 ± 0.45
AUACAGCAAUAUUACGUGUU	-3.98 ± 0.21	-2.64 ± 0.22
AAAGAGCAAUAUUACGUACU	-1.21 ± 0.14	-0.952 ± 0.15
GUGAAGCAAUAUUACGGAGA	-2.03 ± 0.32	-1.19 ± 0.47
AGGUAGCAAUAUUACGAAUC	-3.462 ± 0.031	-2.2 ± 0.041
CUGUAGCAAUAUUACGCGUG	-1.41 ± 0.1	-0.0484 ± 0.12
ACGCAGCAAUAUUACGGAAG	-3.57 ± 0.24	-1.75 ± 0.16
GCGUAGCAAUAUUACGCUGA	–	-3.19 ± 0.3
CAGAAGCAAUAUUACGGUCG	-0.112 ± 0.075	0.395 ± 0.11
GGACAGCAAUAUUACGUGAU	-0.212 ± 0.061	-0.0525 ± 0.078
AACUAGCAAUAUUACGCAUU	-2.19 ± 0.077	-1.09 ± 0.073
CACUAGCAAUAUUACGUCAU	-5.15 ± 0.41	-2.79 ± 0.23
AAUCAGCAAUAUUACGUAUU	-1.17 ± 0.053	-0.697 ± 0.061
AUCGAGCAAUAUUACGCAAG	-3.22 ± 0.43	-1.72 ± 0.26
GAAUAGCAAUAUUACGGAGG	-4.24 ± 0.3	-2.27 ± 0.22

Sequence	self-splicing fitness (ln) (30 °C)	self-splicing fitness (ln) (37 °C)
UCCAAGCAAUAUUACGAACC	-1.65 ± 0.25	–
AUGUAGCAAUAUUACGGUGU	-3.04 ± 0.16	-0.843 ± 0.1
GAGGAGCAAUAUUACGCGGA	-3.27 ± 0.4	-2.76 ± 0.41
CCCAAGCAAUAUUACGCGGA	-1.6 ± 0.093	-0.459 ± 0.097
GUUAAGCAAUAUUACGCUUA	-3.09 ± 0.26	-2.71 ± 0.25
UGUUAGCAAUAUUACGUUUA	-1.78 ± 0.09	-0.902 ± 0.098
CUUUAGCAAUAUUACGGGGU	-3.02 ± 0.24	-2.94 ± 0.27
UUCAAGCAAUAUUACGCCUG	–	-1.64 ± 0.34
CCGUAGCAAUAUUACGUCCU	-3 ± 0.24	-2.62 ± 0.3
GGGGAGCAAUAUUACGCUAU	-3.31 ± 0.36	-1.88 ± 0.38
UGGCAGCAAUAUUACGGCUA	-0.191 ± 0.15	-0.128 ± 0.19
GACAAGCAAUAUUACGAGUG	-1.55 ± 0.056	-0.456 ± 0.073
CUUAAGCAAUAUUACGUCAA	-3.38 ± 0.35	-2.33 ± 0.21
GCGCAGCAAUAUUACGAGCU	-3.19 ± 0.28	-1.74 ± 0.16
GUCUAGCAAUAUUACGGAAG	-0.159 ± 0.09	0.218 ± 0.12
AUAAAGCAAUAUUACGGGGC	-3.6 ± 0.26	-1.97 ± 0.22
CGCCAGCAAUAUUACGACGA	-2.77 ± 0.15	-1.48 ± 0.14
GUAGAGCAAUAUUACGGAGU	-2.27 ± 0.23	-1.61 ± 0.18
ACCUAGCAAUAUUACGGGAG	-1.93 ± 0.072	-1.41 ± 0.088
CUUGAGCAAUAUUACGGAUA	-3.62 ± 0.4	-1.76 ± 0.4
CGUGAGCAAUAUUACGCUUG	-2.56 ± 0.11	-2.07 ± 0.13
UUGAAGCAAUAUUACGAGUC	-3.73 ± 0.32	-2.8 ± 0.38
UUCUAGCAAUAUUACGAUUU	-1.54 ± 0.16	-1.33 ± 0.15
GGGCAGCAAUAUUACGCACU	-1.6 ± 0.32	-1.42 ± 0.24
GGUAAGCAAUAUUACGAUUG	-3.48 ± 0.48	-3.44 ± 0.39

Sequence	self-splicing fitness (ln) (30 °C)	self-splicing fitness (ln) (37 °C)
UCCGAGCAAUAUUACGCACA	-3.21 ± 0.22	-0.221 ± 0.13
UACGAGCAAUAUUACGUUCU	-2.38 ± 0.14	-2.35 ± 0.16
AGAGAGCAAUAUUACGCACU	-3.16 ± 0.34	-2.41 ± 0.32
CAUGAGCAAUAUUACGUUUG	-3.57 ± 0.16	-2.89 ± 0.2
GCCGAGCAAUAUUACGGUGA	-1.49 ± 0.088	-0.176 ± 0.095
AAAAAGCAAUAUUACGCACC	-1.16 ± 0.14	-0.602 ± 0.16
UUGUAGCAAUAUUACGUUUC	-3.69 ± 0.46	–
AAUGAGCAAUAUUACGACUU	-0.422 ± 0.091	0.263 ± 0.1
GUGGAGCAAUAUUACGUUAA	-2.17 ± 0.19	-2.41 ± 0.26
CGGCAGCAAUAUUACGUUGU	-2.18 ± 0.11	-2.68 ± 0.19
AAAUAGCAAUAUUACGAACC	-1.91 ± 0.33	1.21 ± 0.28
UCGCAGCAAUAUUACGUGCU	-3.64 ± 0.16	-2.15 ± 0.17
UCAAAGCAAUAUUACGCGCU	-3.63 ± 0.47	-2.53 ± 0.45
GCCCAGCAAUAUUACGGUGG	-3.21 ± 0.17	-3.59 ± 0.25
CAUGAGCAAUAUUACGCCUU	-3.02 ± 0.26	-1.86 ± 0.24
CCAGAGCAAUAUUACGGCAA	-2.25 ± 0.38	-2.28 ± 0.3
UAUCAGCAAUAUUACGUGCU	-3.64 ± 0.21	-2.1 ± 0.16
GUGAAGCAAUAUUACGUGUC	-2.89 ± 0.11	-1.83 ± 0.12
GAACAGCAAUAUUACGUUCU	-3.36 ± 0.13	-3.63 ± 0.2
CACGAGCAAUAUUACGGAGG	-4.5 ± 0.36	-2.75 ± 0.28
AGGUAGCAAUAUUACGCGUU	-1.888 ± 0.015	-0.903 ± 0.033
GUGAAGCAAUAUUACGCCCG	-0.347 ± 0.39	-0.026 ± 0.42
UGGGAGCAAUAUUACGUUAG	-3.58 ± 0.32	-2.13 ± 0.23
UACUAGCAAUAUUACGAAGG	-3.46 ± 0.29	-1.04 ± 0.34
AGGGAGCAAUAUUACGGCAC	–	-1.77 ± 0.42

Sequence	self-splicing fitness (ln) (30 °C)	self-splicing fitness (ln) (37 °C)
AAGGAGCAAUAUUACGGAAA	–	-0.83 ± 0.24
UGAAAGCAAUAUUACGUAAU	-3.71 ± 0.14	-0.793 ± 0.11
GCUCAGCAAUAUUACGUCCA	-1.28 ± 0.11	-0.711 ± 0.13
UUGGAGCAAUAUUACGCUAU	-2.08 ± 0.44	-1.93 ± 0.28
GACCAGCAAUAUUACGCGAC	-2.3 ± 0.11	-1.04 ± 0.13
CCGGAGCAAUAUUACGCCUG	-2.36 ± 0.24	-1.8 ± 0.24
GCACAGCAAUAUUACGCGUC	-3.73 ± 0.2	-0.646 ± 0.098
GGACAGCAAUAUUACGAGCU	-1.01 ± 0.18	0.191 ± 0.19
UUUAAGCAAUAUUACGCCGA	-0.292 ± 0.13	0.0683 ± 0.15
UGUAAGCAAUAUUACGGGGG	-3.46 ± 0.22	-1.88 ± 0.21
CCUAAGCAAUAUUACGCCGA	-0.993 ± 0.49	-1.98 ± 0.37
AGUGAGCAAUAUUACGUACG	-2.22 ± 0.16	-1.3 ± 0.13
GACAAGCAAUAUUACGAAAG	-3.82 ± 0.23	-3.18 ± 0.24
UACGAGCAAUAUUACGGAGC	-2.66 ± 0.3	-2.8 ± 0.32
AAAAAGCAAUAUUACGGCAA	-0.286 ± 0.092	0.328 ± 0.12
UAAGAGCAAUAUUACGUCGA	-3.95 ± 0.3	-1.74 ± 0.17
AUCGAGCAAUAUUACGUGGC	-2.91 ± 0.26	-2.52 ± 0.49
CGUGAGCAAUAUUACGGAGC	-2.97 ± 0.36	–
GGAAAGCAAUAUUACGAGCU	-0.199 ± 0.11	0.478 ± 0.12
GAUAAGCAAUAUUACGAAGC	-2.17 ± 0.28	-0.18 ± 0.21
GCAUAGCAAUAUUACGAUCA	-2.05 ± 0.34	0.131 ± 0.22
CGAUAGCAAUAUUACGUACA	-1.98 ± 0.13	-0.0364 ± 0.14
